In patent US20170281764A1 (JN BIOSCIENCES, published 2017):

Experiments:
[1] = target: T1, TIGIT-Fc fusion protein with the D51A mutation (human); assay: ELISA, mutant TIGIT-Fc captured by anti-human Fc, antibody at 200 ng/ml, wild type TIGIT-Fc = 100 %
T1 construct: also called pFCm179-D51A product
Procedure: (§1) Binding of each of mouse TIG1, TIG2 and TIG3 antibodies to the TIGIT mutants was examined by ELISA. An ELISA plate was coated with 100 μl/well of goat anti-human IgG Fc-specific polyclonal antibody (Sigma-Aldrich), 1/2,000-diluted in PBS at 4° C. overnight, washed with Wash Buffer, and blocked with 200 μl/well ELISA Buffer for 20 min at room temperature. After washing with Wash Buffer, 0.5 μg/ml of transiently expressed TIGIT-Fc fusion proteins, carrying either the wild-type TIGIT or one of the six TIGIT mutants, in ELISA Buffer (100 μl/well) were applied to the ELISA plate in duplicates for incubation at room temperature for 30 min. As a negative control, culture supernatants of untransfected HEK293 cells were used. After washing with Wash Buffer, 100 μl/well of 200 ng/ml of a test antibody (TIG1, TIG2 or TIG3) in ELISA Buffer (100 μl/well) was applied. After incubating the ELISA plate for 30 min at room temperature and washing with Wash Buffer, bound antibodies were detected using 100 μl/well of HRP-conjugated goat anti-mouse kappa chain polyclonal antibody (Bethyl Laboratories, Montgomery, Tex.), 1/2,000-diluted in ELISA Buffer. After incubating the plate for 0.5 hr at room temperature and washing with Wash Buffer, color development was initiated by adding 100 μl/well of ABTS substrate (Sigma-Aldrich) and stopped with 100 μl/well of 2% oxalic acid. Absorbance was read at 405 nm.
(§2) For each of TIG1, TIG2 and TIG3, the relative binding to each TIGIT mutant was calculated in the following formula. The average absorbance with the wild type TIGIT-Fc fusion proteins [Abs A] was normalized to 100%, and the average absorbance with culture supernatants of untransfected HEK293 cells [Abs B] was normalized to 0%. The average absorbance with a mutant TIGIT-Fc fusion protein [Abs C] was normalized by the following formula: 100×([Abs C]−[Abs B])/([Abs A]−[Abs B]). […] None of the TIGIT mutants used in this assay abolished the binding of TIG2 and TIG3 to TIGIT.

[2] = target: T2, TIGIT-Fc fusion protein with the F86A mutation (human); assay: as above
T2 construct: also called pFCm179-F86A product
Procedure: as §1, §2

[3] = target: T3, TIGIT-Fc fusion protein with the N49A mutation (human); assay: as above
T3 construct: also called pFCm179-N49A product
Procedure: as §1, §2

[4] = target: T4, TIGIT-Fc fusion protein with the Q35A mutation (human); assay: as above
T4 construct: the entry already carries the mutation; also called pFCm179-Q35A product
Procedure: as §1, §2

[5] = target: T5, TIGIT-Fc fusion protein with the N37A mutation (human); assay: as above
T5 construct: also called pFCm179-N37A product
Procedure: as §1, §2

[6] = target: TIGIT-Fc fusion protein with the E39A mutation (printed Q39A in the text) (human); assay: as above
Procedure: as §1, §2

[7] = target: T6, extracellular region of human TIGIT fused to the Fc region of human immunoglobulin gamma-1 chain (hTIGIT-Fc) (human); assay: ELISA, hybridoma screening
T6 construct: also called human TIGIT-Fc fusion protein; wild-type TIGIT-Fc
Excerpt: Mouse antibodies secreted in culture supernatants of hybridoma cells were subjected to a series of screening to identify the antibodies with the following properties: (1) binding to purified hTIGIT-Fc fusion protein, (2) binding to NS0-hTIGIT cells, (3) non-binding to NS0 cells, (4) binding to CD3+ T cells derived from phytohemagglutinin-treated human peripheral blood mononuclear cells and (5) blocking of the binding of hCD155-Fc fusion protein to NS0-hTIGIT cells. The first property to bind to hTIGIT-Fc was tested by ELISA using HRP-conjugated goat antibodies against mouse kappa and lambda light chains (SouthernBiotech, Birmingham, Ala.) for identification of mouse anti-TIGIT antibodies. The second, third and fourth properties were examined by flow cytometry using PE-labeled goat anti-mouse gamma chain antibody (SouthernBiotech) for detection of cell-bound mouse antibodies. The fifth property was analyzed by flow cytometry as described below. […] TIG1, TIG2 and TIG3 monoclonal antibodies were purified from culture supernatant of hybridoma cells by protein A column chromatography as described above. The isotypes of TIG1, TIG2 and TIG3 are mouse IgG2b/kappa, IgG2a/kappa and IgG2a/kappa, respectively.

[8] = target: T1, TIGIT-Fc fusion protein with the D51A …; assay: ELISA on captured mutant TIGIT-Fc
Procedure: as §1, §2

[9] = target: T4, TIGIT-Fc fusion protein with the Q35A …; assay: ELISA on captured mutant TIGIT-Fc
Procedure: as §1, §2

[10] = target: T5, TIGIT-Fc fusion protein with the N37A …; assay: ELISA on captured mutant TIGIT-Fc
Procedure: as §1, §2

[11] = target: T7, human TIGIT on cells (Jurkat-TIGIT cells; human T cells, NK cells and other blood cells) (human, UniProt Q495A1 22-244); assay: cell-based or functional assay
T7 sequence: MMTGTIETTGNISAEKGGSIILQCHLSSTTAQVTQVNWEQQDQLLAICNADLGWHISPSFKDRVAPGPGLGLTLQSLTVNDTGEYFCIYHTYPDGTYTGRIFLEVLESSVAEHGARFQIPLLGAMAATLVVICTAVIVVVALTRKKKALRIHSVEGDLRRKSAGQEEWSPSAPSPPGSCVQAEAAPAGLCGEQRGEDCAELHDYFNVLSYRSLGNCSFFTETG

[12] = target: T8, extracellular region of human TIGIT fused to FLAG and GPI (hTIGIT-GPI), on the surface of NS0 cells (human); assay: flow cytometry, competition with hCD155-Fc for NS0-hTIGIT cells
T8 construct: The GPI signal is processed when the anchor is attached; also called NS0-hTIGIT cells
T8 chain: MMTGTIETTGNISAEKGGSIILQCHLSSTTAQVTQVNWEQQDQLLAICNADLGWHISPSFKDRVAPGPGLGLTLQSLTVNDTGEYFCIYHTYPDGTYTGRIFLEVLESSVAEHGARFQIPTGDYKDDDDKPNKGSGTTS
Procedure: The activity of TIG1, TIG2 and TIG3 to block the interaction between TIGIT and CD155 was analyzed by flow cytometry. NS0-hTIGIT cells were incubated with a sub-saturating concentration of hCD155-Fc in the presence (or absence) of various concentrations of an anti-TIGIT monoclonal antibody as a competitor. Detection of hCD155-Fc bound to NS0-hTIGIT cells was performed with DyLight488-labeled goat anti-human IgG, Fc-specific antibody (Jackson ImmunoResearch, West Grove, Pa.).

B1: TIG1 mouse anti-human TIGIT monoclonal antibody (antibody, mouse IgG2b, V domains shown)
VH: DVQLVESGGGLVQPGGSRKLSCAASGFTFSNFGMHWVRQAPEKGLEWVAFISSGSSSIYYADTVKGRFTISRDNPKNTLFLQMTSLRSEDTAMYYCARMRLDYYAMDYWGQGTSVTVSS
VL: DVQITQSPSYLAASPGETITINCRASKSISKYLAWYQEKPGKTNKLLIYSGSTLQSGIPSRFSGSGSGTDFTLTISSLEPEDFAMYYCQQHNEYPWTFGGGTKLEIK
notes: also called anti-TIGIT antibody (TIG1)
Relative binding to TIGIT (%) [1]: 1.8% | Relative binding to TIGIT (%) [2]: 49.5% | Relative binding to TIGIT (%) [3]: 0.5% | Relative binding to TIGIT (%) [4]: -0.1% | Relative binding to TIGIT (%) [5]: 0.8% | Relative binding to TIGIT (%) [6]: 71.1% | binding result [7]: binds | binding result [8]: no binding | binding result [9]: no binding | binding result [10]: no binding | enhancement of NK cell mediated natural cytotoxicity of K562 cells [11]: 2 fold | IC50 [12]: 0.049 µg/mL
